Results: article PMC8313675, “Molecular insights into the human ABCB6 transporter” (Cell Discovery, 2021)
Where a chain is given by its changes, count along the chain named. In names and notes the source's numbering stands.

B1: human ABCB6 (hABCB6), wild type, C-terminal Strep-tag (natural protein, UniProt Q9NP58 1-842, looked up)
chain: MVTVGNYCEAEGPVGPAWMQDGLSPCFFFTLVPSTRMALGTLALVLALPCRRRERPAGADSLSWGAGPRISPYVLQLLLATLQAALPLAGLAGRVGTARGAPLPSYLLLASVLESLAGACGLWLLVVERSQARQRLAMGIWIKFRHSPGLLLLWTVAFAAENLALVSWNSPQWWWARADLGQQVQFSLWVLRYVVSGGLFVLGLWAPGLRPQSYTLQVHEEDQDVERSQVRSAAQQSTWRDFGRKLRLLSGYLWPRGSPALQLVVLICLGLMGLERALNVLVPIFYRNIVNLLTEKAPWNSLAWTVTSYVFLKFLQGGGTGSTGFVSNLRTFLWIRVQQFTSRRVELLIFSHLHELSLRWHLGRRTGEVLRIADRGTSSVTGLLSYLVFNVIPTLADIIIGIIYFSMFFNAWFGLIVFLCMSLYLTLTIVVTEWRTKFRRAMNTQENATRARAVDSLLNFETVKYYNAESYEVERYREAIIKYQGLEWKSSASLVLLNQTQNLVIGLGLLAGSLLCAYFVTEQKLQVGDYVLFGTYIIQLYMPLNWFGTYYRMIQTNFIDMENMFDLLKEETEVKDLPGAGPLRFQKGRIEFENVHFSYADGRETLQDVSFTVMPGQTLALVGPSGAGKSTILRLLFRFYDISSGCIRIDGQDISQVTQASLRSHIGVVPQDTVLFNDTIADNIRYGRVTAGNDEVEAAAQAAGIHDAIMAFPEGYRTQVGERGLKLSGGEKQRVAIARTILKAPGIILLDEATSALDTSNERAIQASLAKVCANRTTIVVAHRLSTVVNADQILVIKDGCIVERGRHEALLSRGGVYADMWQLQQGQEETSEDTKPQTMER
notes: ABCB6, Homo sapiens, 842-amino acid protein; theoretical MW 94 kDa; TMD0 (residues 1-244) is in the protein but obscure in the map; PDB and EMDB ids are assigned by the order of the data availability sentence; also called WT hABCB6; hABCB6-WT; not shown: Strep-tag, C-terminal, kept
B2: human ABCB6 E752Q mutant (hABCB6[EQ]), C-terminal Strep-tag (natural protein, UniProt Q9NP58 1-842, looked up)
chain: B1 chain with E752Q
notes: ABCB6, Homo sapiens, 842-amino acid protein, with the Walker B mutation E752Q; Same construct as m1 with E752Q; Incubated with 5 mM ATP-Mg2+ (and 20 uM PPIX) before grid preparation; PDB and EMDB ids are assigned by the order of the data availability sentence; also called hABCB6 E752Q; not shown: Strep-tag, C-terminal, kept

Legend:
[1] = molecular target: the molecule itself; experiment: cryo-EM structure; apo-state WT hABCB6 in POPC:POPE (3:1) MSP2N2 nanodiscs, inward-facing, C2 symmetry, 3.6 A
[2] = molecular target: the molecule itself; experiment: cryo-EM structure; hABCB6[EQ] in POPC:POPE MSP2N2 nanodiscs, incubated with 5 mM ATP-Mg2+ for 30 min at 37 C, occluded conformation, C2 symmetry, 3.5 A

| Protein | binding result [1] | binding result [2] |
| --- | --- | --- |
| B1 | binds | – |
| B2 | – | binds |
